In publication PMC6771230:

Tested on: YB-1
Assay: EMSA
Details: serial-diluted protein; RNA-EMSA in Thermo Scientific kit binding buffer, 6% polyacrylamide gel; salt, pH and temperature not stated

## H19 RNA fragment 661-745 (85 nt)
  Kd: 7.4 µM
